This is an account of results in patent US20240392020A1 (JIANGSU HENGRUI PHARMACEUTICALS, published 2024).

To fix the notation:
T1: CEA on MKN45 cells (UniProt P06731 35-685)
T1 construct: whole, on cells
T1 sequence (looked up): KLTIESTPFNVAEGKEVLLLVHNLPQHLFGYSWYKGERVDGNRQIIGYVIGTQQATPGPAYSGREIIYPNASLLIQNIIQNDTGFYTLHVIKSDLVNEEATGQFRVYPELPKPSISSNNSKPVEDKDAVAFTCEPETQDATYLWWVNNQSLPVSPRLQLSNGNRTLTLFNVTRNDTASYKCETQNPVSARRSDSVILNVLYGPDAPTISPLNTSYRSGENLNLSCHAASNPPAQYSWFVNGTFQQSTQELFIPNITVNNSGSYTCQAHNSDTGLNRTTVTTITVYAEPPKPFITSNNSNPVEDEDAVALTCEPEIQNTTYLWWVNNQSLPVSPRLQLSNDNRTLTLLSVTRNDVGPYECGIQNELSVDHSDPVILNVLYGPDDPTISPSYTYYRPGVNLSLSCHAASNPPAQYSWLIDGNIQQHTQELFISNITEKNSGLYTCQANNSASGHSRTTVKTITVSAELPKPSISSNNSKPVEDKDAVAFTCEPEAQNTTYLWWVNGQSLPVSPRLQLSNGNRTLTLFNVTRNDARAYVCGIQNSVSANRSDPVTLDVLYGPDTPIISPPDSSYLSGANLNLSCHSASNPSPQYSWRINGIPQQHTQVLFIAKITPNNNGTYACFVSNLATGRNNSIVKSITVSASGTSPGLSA

T2: hP40 (human, UniProt P29460 23-328)
T2 construct: bought
T2 sequence (looked up): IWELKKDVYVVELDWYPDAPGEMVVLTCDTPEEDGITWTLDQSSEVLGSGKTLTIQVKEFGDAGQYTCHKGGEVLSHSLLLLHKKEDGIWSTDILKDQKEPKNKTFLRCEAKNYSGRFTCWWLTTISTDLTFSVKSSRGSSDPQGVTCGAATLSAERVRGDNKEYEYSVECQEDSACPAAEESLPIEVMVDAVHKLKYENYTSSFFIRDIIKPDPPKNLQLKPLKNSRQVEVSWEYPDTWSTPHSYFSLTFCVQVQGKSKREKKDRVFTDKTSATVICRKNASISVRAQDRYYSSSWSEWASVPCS

B1: N2 (antibody)
heavy: not shown
light: EIVLTQSPGTLSLSPGERATLSCRASQNINNRFLAWYQQRPGQAPRLLIYAASSRATGVPDRFSGSGSGTDFTLTISRLEAEDFAMYHCQQYGSFPRTFGQGTMVDIKFDPVYKVKPNPPHNLSVINSEELSSILKLTWTNPSIKSVIILKYNIQYRTKDASTWSQIPPEDTASTRSSFTVQDLKPFTEYVFRIRCMKEDGKGYWSDWSEEASGIT
B2: C1 (antibody)
heavy: not shown
light: DIVMTQSPDSLAVSLGERATINCRASESVSIIGTNLIHWYQQKPGQPPKLLIYHASNLETGVPDRFSGSGSGTDFTLTISSLQAEDVAVYYCLQSRKIPYTFGGGTKVEIKGIPPKIEALPSDISIDEGKVLTVACAFTGEPTPEVTWSCGGRKIHSQEQGRFHIENTDDLTTLIIMDVQKQDGGLYTLSLGNEFGSDSATVNIHIRSI
B3: C2 (antibody)
heavy: not shown
light: DIVMTQSPDSLAVSLGERATINCRASESVSIIGTNLIHWYQQKPGQPPKLLIYHASNLETGVPDRFSGSGSGTDFTLTISSLQAEDVAVYYCLQSRKIPYTFGGGTKVEIKGIPPKIEALPSDISIDEGKVLTVACAFTGEPTPEVTWSCGGRKIHSQEQGRFHIENTDDLTTLIIMDVQKQDGGLYTLSLGNEFGSDSATVNIHIRSI
B4: N5 (antibody)
heavy: not shown
light: EIVLTQSPGTLSLSPGERATLSCRASQNINNRFLAWYQQRPGQAPRLLIYAASSRATGVPDRFSGSGSGTDFTLTISRLEAEDFAMYHCQQYGSFPRTFGQGTMVDIKGIPPKIEALPSDISIDEGKVLTVACAFTGEPTPEVTWSCGGRKIHSQEQGRFHIENTDDLTTLIIMDVQKQDGGLYTLSLGNEFGSDSATVNIHIRSI
B5: N1 (antibody)
heavy: not shown
light: EIVLTQSPGTLSLSPGERATLSCRASQNINNRFLAWYQQRPGQAPRLLIYAASSRATGVPDRFSGSGSGTDFTLTISRLEAEDFAMYHCQQYGSFPRTFGQGTMVDIKGILQPDPPANITVTAVARNPRWLSVTWQDPHSWNSSFYRLRFELRYRAERSKTFTTWMVKDLQHHCVIHDAWSGLRHVVQLRAQEEFGQGEWSEWSPEAMGTPW
B6: N0 (antibody, human IgG1, kappa)
heavy: not shown
light: EIVLTQSPGTLSLSPGERATLSCRASQNINNRFLAWYQQRPGQAPRLLIYAASSRATGVPDRFSGSGSGTDFTLTISRLEAEDFAMYHCQQYGSFPRTFGQGTMVDIKRTVAAPSVFIFPPSDEQLKSGTASVVCLLNNFYPREAKVQWKVDNALQSGNSQESVTEQDSKDSTYSLSSTLTLSKADYEKHKVYACEVTHQGLSSPVTKSFNRGEC
B7: C0 (antibody, human IgG1, kappa)
heavy: not shown
light: DIVMTQSPDSLAVSLGERATINCRASESVSIIGTNLIHWYQQKPGQPPKLLIYHASNLETGVPDRFSGSGSGTDFTLTISSLQAEDVAVYYCLQSRKIPYTFGGGTKVEIKRTVAAPSVFIFPPSDEQLKSGTASVVCLLNNFYPREAKVQWKVDNALQSGNSQESVTEQDSKDSTYSLSSTLTLSKADYEKHKVYACEVTHQGLSSPVTKSFNRGEC
B8: U2 (antibody)
heavy: not shown
light: DIQMTQSPSSLSASVGDRVTITCRASQGISSWLAWYQQKPEKAPKSLIYAASSLQSGVPSRFSGSGSGTDFTLTISSLQPEDFATYYCQQYNIYPYTFGQGTKLEIKSGAPRFLTRPKSYTVSVGKDASLSSQIVGNPTPQVSWEKDQQPVAAGARFRLAQDGDLYRLKILDLALGDSGQYVSRARNAIGEAFACVGLQVDAEA
B9: U7 (antibody)
heavy: not shown
light: DIQMTQSPSSLSASVGDRVTITCRASQGISSWLAWYQQKPEKAPKSLIYAASSLQSGVPSRFSGSGSGTDFTLTISSLQPEDFATYYCQQYNIYPYTFGQGTKLEIKSGAPRFLTRPLAFVVSVGKDATLSSQIVGNPTPQVSWEKDQLPVTAGARFRLAQDGDLYRLKILDLTLSDSGQYVSRARNAIGEAFACVGLEVGAEA
B10: U4 (antibody)
heavy: not shown
light: DIQMTQSPSSLSASVGDRVTITCRASQGISSWLAWYQQKPEKAPKSLIYAASSLQSGVPSRFSGSGSGTDFTLTISSLQPEDFATYYCQQYNIYPYTFGQGTKLEIKSGAPRFLTRPLAFVVSVGKDATLSSQIVGNPTPQVSWEKDKQPVTAGARFRLAQDGDLYRLKILDLQLSDSGQYVSRARNAIGEAFACLGLQVDAEA
B11: U5 (antibody)
heavy: not shown
light: DIQMTQSPSSLSASVGDRVTITCRASQGISSWLAWYQQKPEKAPKSLIYAASSLQSGVPSRFSGSGSGTDFTLTISSLQPEDFATYYCQQYNIYPYTFGQGTKLEIKSGAPRFLTRPLAFVVSVGKDATLSSQIVGNPTPQVSWEKDQLPVTAGARFRLAQDGDLYRLKILDLTLSDSGQYVSRARNAIGEAFACVGLEVGAEA
B12: U8 (antibody)
heavy: not shown
light: DIQMTQSPSSLSASVGDRVTITCRASQGISSWLAWYQQKPEKAPKSLIYAASSLQSGVPSRFSGSGSGTDFTLTISSLQPEDFATYYCQQYNIYPYTFGQGTKLEIKSGAPRFLTRPLSYVVSVGKDASLSSQIVGNPTPQVSWEKDQLPVTAGARFRLAQDGDLYRLKILDLQLSDSGQYVSRARNAIGEAFACVGLEVGAEA
B13: U6 (antibody)
heavy: not shown
light: DIQMTQSPSSLSASVGDRVTITCRASQGISSWLAWYQQKPEKAPKSLIYAASSLQSGVPSRFSGSGSGTDFTLTISSLQPEDFATYYCQQYNIYPYTFGQGTKLEIKSGAPRFLTRPLAFVVSVGKDATLSSQIVGNPTPQVSWEKDQLPVTAGARFRLAQDGDLYRLKILDLTLSDSGQYVSRARNAIGEAFACVGLEVGAEA
B14: U1 (antibody)
heavy: not shown
light: DIQMTQSPSSLSASVGDRVTITCRASQGISSWLAWYQQKPEKAPKSLIYAASSLQSGVPSRFSGSGSGTDFTLTISSLQPEDFATYYCQQYNIYPYTFGQGTKLEIKSGAPRFLTRPLAFVVSVGKDATLSSQIVGNPTPQVSWEKDQQPVAAGARFRLAQDGDLYRLKILDLALGDSGQYVSRARNAIGEAFACVGLQVDAEA
B15: U3 (antibody)
heavy: not shown
light: DIQMTQSPSSLSASVGDRVTITCRASQGISSWLAWYQQKPEKAPKSLIYAASSLQSGVPSRFSGSGSGTDFTLTISSLQPEDFATYYCQQYNIYPYTFGQGTKLEIKSEAPRFLTRPLAFVVSEGKDATLSSQIVGDPPPEVTWEKDQQPITAGARFRLAQDGDVYRLEILDLQLSDSGQYVSRARNAIGEAFACVGLQVDAEG
B16: HJ-3 (bispecific antibody, human IgG1, kappa, L234A L235A)
heavy 1: not shown
light 1: DIQMTQSPSSVSASVGDRVTITCRASQDIANYLSWYQQKPGKSPKLLIYGTSNLEVGVPSRFSGSRSGTDFTLTISSLQPEDFATYYCLQDKEFPRTFGGGTKVEIKGGGGSSGAPRFLTRPLAFVVSVGKDATLSSQIVGNPTPQVSWEKDKQPVTAGARFRLAQDGDLYRLKILDLQLSDSGQYVSRARNAIGEAFACLGLQVDAEA
heavy 2: EVQLVQSGAEVKKPGSSVKVSCKASGYTFSNYLIEWVRQAPGQGLEWIGVIDPGVGDTNYNENFKGRATLTADKSTSTAYIELSSLRSEDTAVYYCAREDNTGTAFDYWGQGTTVTVSSASTKGPSVFPLAPSSKSTSGGTAALGCLVKDYFPEPVTVSWNSGALTSGVHTFPAVLQSSGLYSLSSVVTVPSSSLGTQTYICNVNHKPSNTKVDKKVEPKSCDKTHTCPPCPAPEAAGGPSVFLFPPKPKDTLMISRTPEVTCVVVDVSHEDPEVKFNWYVDGVEVHNAKTKPREEQYNSTYRVVSVLTVLHQDWLNGKEYKCKVSNKALPAPIEKTISKAKGQPREPQVCTLPPSREEMTKNQVSLSCAVKGFYPSDIAVEWESNGQPENNYKTTPPVLDSDGSFFLVSKLTVDKSRWQQGNVFSCSVMHEALHNHYTQKSLSLSPGKDYKDDDDK
light 2: SIVMTQTPLSLSVTPGQPASISCKASQSVSSDVTWYLQKPGQSPQLLIYYVSEHYTGVPDRFSGSGYGTDFTLKISRVEAEDVGVYYCQQHHRFPLTFGQGTKLEIKRTVAAPSVFIFPPSDEQLKSGTASVVCLLNNFYPREAKVQWKVDNALQSGNSQESVTEQDSKDSTYSLSSTLTLSKADYEKHKVYACEVTHQGLSSPVTKSFNRGEC

One assay deals with T1, CEA on MKN45 cells. Nature of the assay: FACS, MKN45 cells. Background: Flow cytometry measures light scatter and fluorescence of single cells or particles in a stream.
B1: a half-maximal effect (EC50) was put at 766 nM. The molecule B2 came in with an EC50 of 17.7 nM. Against the preceding molecule, the EC50 is about 43-fold lower. B3 gave an EC50 of 16.5 nM. Same read-out and setting: in the case of B4 it was 5.24 nM; in that of B5, 1230 nM; in that of B6, 0.82 nM.

B7 returned an EC50 of 5.81 nM.

A further assay addresses T2, hP40. In words: ELISA.
Method: For an antibody targeting a soluble protein, the binding activity of the antibody against the soluble protein was detected by ELISA. […] After the blocking was completed, the blocking solution was discarded; and the plate was washed 3 times with a PBST buffer (pH 7.4, PBS containing 0.1% tween-20). 100 μL of the antibody solution diluted in a gradient was added to each well, and the mixture was incubated at 37° C. for 1 h. After the incubation was completed, the plate was washed 3 times with PBST. […] The plate was washed 3 times with PBST. […] The reaction was stopped by adding 50 μL of 1 M H₂SO₄ to each well. The absorbance values at 450 nm were read on a microplate reader, the binding curves of the antibodies to an antigen were fitted with software, and the EC₅₀ values were calculated.
B8 registered an EC50 of 0.07 nM.

The molecule B9 came in with an EC50 of 0.07 nM. In other words, the picomolar range. Still for that read-out and setting: to B10 belongs 0.06 nM; to B11, 0.11 nM; to B12, 0.16 nM. The same measure, in the same setting: in the case of B13 it was 0.11 nM; in that of B14, 0.03 nM. Consider B15, for which the midpoint of the response, the EC50, lay at 0.02 nM.

A further assay concerns the target T3, hIL-5 (human, UniProt P05113 20-134).
T3 construct: bought
Nature of the assay: ELISA. (In general: In an ELISA, binding on a coated surface is turned into a signal by an enzyme label.)
Method: (§1) For an antibody targeting a soluble protein, the binding activity of the antibody against the soluble protein was detected by ELISA. […] After the blocking was completed, the blocking solution was discarded; and the plate was washed 3 times with a PBST buffer (pH 7.4, PBS containing 0.1% tween-20). 100 μL of the antibody solution diluted in a gradient was added to each well, and the mixture was incubated at 37° C. for 1 h. After the incubation was completed, the plate was washed 3 times with PBST.
B16 had a 50% effective concentration (EC50) of 17.4 nM.

The target in another assay is T4, hTSLP (human, UniProt Q969D9 29-159).
T4 construct: bought
Nature of the assay: ELISA.
Method: as §1
B16 had an EC50 of 3.23 nM.

As a reminder, the EC50 is the concentration giving half of the maximal effect. A lower EC50 goes with higher potency in that assay.
